Measurements reported in US20030119038A1, “NARC1, novel subtilase-like homologs” (priority 1999, published 2003).
Entries after “also recorded” stand apart in the source; their conditions may differ.

B1: H225W: Full-length NARC1 point mutant; mutation of the active site histidine (protein)
chain: MGIRCSTWLRWPLSPQLLLLLLLCPTGSRAQDEDGDYEELMLALPSQEDSLVDEASHVATATFRRCSKEAWRLPGTYVVVLMEETQRLQVEQTAHRLQTWAARRGYVIKVLHVFYDLFPGFLVKMSSDLLGLALKLPHVEYIEEDSLVFAQSIPWNLERIIPAWQQTEEDSSPDGSSQVEVYLLDTSIQSGHREIEGRVTITDFNSVPEEDGTRFHRQASKCDSWGTHLAGVVSGRDAGVAKGTSLHSLRVLNCQGKGTVSGTLIGLEFIRKSQLIQPSGPLVVLLPLAGGYSRILNTACQRLARTGVVLVAAAGNFRDDACLYSPASAPEVITVGATNAQDQPVTLGTLGTNFGRCVDLFAPGKDIIGASSDCSTCYMSQSGTSQAAAHVAGIVAMMLNRDPALTLAELRQRLILFSTKDVINMAWFPEDQRVLTPNRVATLPPSTQETGGQLLCRTVWSAHSGPTRTATATARCAPEEELLSCSSFSRSGRRRGDRIEAIGGQQVCKALNAFGGEGVYAVARCCLLPRVNCSIHNTPAARAGPQTPVHCHQKDHVLTGCSFHWEVENLRAQQQPLLRSRHQPGQCVGHQEASVHASCCHAPGLECKIKEHGIAGPAEQVTVACEAGWTLTGCNVLPGASLPLGAYSVDNVCVARIRDAGRADRTSEEATVAAAICCRSRPSAKASWVHQ
modifications: mutant of rat sequence mutating amino acid His225Trp of SEQ ID NO9
B2: C-terminal truncation V507: NARC1 terminating at residue V507; much of the CRR removed (protein)
chain: MGIRCSTWLRWPLSPQLLLLLLLCPTGSRAQDEDGDYEELMLALPSQEDSLVDEASHVATATFRRCSKEAWRLPGTYVVVLMEETQRLQVEQTAHRLQTWAARRGYVIKVLHVFYDLFPGFLVKMSSDLLGLALKLPHVEYIEEDSLVFAQSIPWNLERIIPAWQQTEEDSSPDGSSQVEVYLLDTSIQSGHREIEGRVTITDFNSVPEEDGTRFHRQASKCDSHGTHLAGVVSGRDAGVAKGTSLHSLRVLNCQGKGTVSGTLIGLEFIRKSQLIQPSGPLVVLLPLAGGYSRILNTACQRLARTGVVLVAAAGNFRDDACLYSPASAPEVITVGATNAQDQPVTLGTLGTNFGRCVDLFAPGKDIIGASSDCSTCYMSQSGTSQAAAHVAGIVAMMLNRDPALTLAELRQRLILFSTKDVINMAWFPEDQRVLTPNRVATLPPSTQETGGQLLCRTVWSAHSGPTRTATATARCAPEEELLSCSSFSRSGRRRGDRIEAIGGQQV
modifications: mutant of rat sequence truncated mutant ends at amino acid Val507
notes: NARC1 terminating at residue V507; much of the CRR removed
B3: C-terminal truncation M425: NARC1 terminating at residue M425; all of the cysteine-rich region removed (protein)
chain: MGIRCSTWLRWPLSPQLLLLLLLCPTGSRAQDEDGDYEELMLALPSQEDSLVDEASHVATATFRRCSKEAWRLPGTYVVVLMEETQRLQVEQTAHRLQTWAARRGYVIKVLHVFYDLFPGFLVKMSSDLLGLALKLPHVEYIEEDSLVFAQSIPWNLERIIPAWQQTEEDSSPDGSSQVEVYLLDTSIQSGHREIEGRVTITDFNSVPEEDGTRFHRQASKCDSHGTHLAGVVSGRDAGVAKGTSLHSLRVLNCQGKGTVSGTLIGLEFIRKSQLIQPSGPLVVLLPLAGGYSRILNTACQRLARTGVVLVAAAGNFRDDACLYSPASAPEVITVGATNAQDQPVTLGTLGTNFGRCVDLFAPGKDIIGASSDCSTCYMSQSGTSQAAAHVAGIVAMMLNRDPALTLAELRQRLILFSTKDVINM
modifications: mutant of rat sequence truncated sequence ends at amino acid Met 425
notes: NARC1 terminating at residue M425; all of the cysteine-rich region removed
B4: C-terminal truncation Q453: NARC1 terminating at residue Q453; most of the CRR removed (protein)
chain: MGIRCSTWLRWPLSPQLLLLLLLCPTGSRAQDEDGDYEELMLALPSQEDSLVDEASHVATATFRRCSKEAWRLPGTYVVVLMEETQRLQVEQTAHRLQTWAARRGYVIKVLHVFYDLFPGFLVKMSSDLLGLALKLPHVEYIEEDSLVFAQSIPWNLERIIPAWQQTEEDSSPDGSSQVEVYLLDTSIQSGHREIEGRVTITDFNSVPEEDGTRFHRQASKCDSHGTHLAGVVSGRDAGVAKGTSLHSLRVLNCQGKGTVSGTLIGLEFIRKSQLIQPSGPLVVLLPLAGGYSRILNTACQRLARTGVVLVAAAGNFRDDACLYSPASAPEVITVGATNAQDQPVTLGTLGTNFGRCVDLFAPGKDIIGASSDCSTCYMSQSGTSQAAAHVAGIVAMMLNRDPALTLAELRQRLILFSTKDVINMAWFPEDQRVLTPNRVATLPPSTQETGGQ
modifications: mutant of rat sequence truncated sequence ends at amino acid Gln453
B5: Deletion of residues L147-M425, inclusive: NARC1 subtilase deletion, large; removes entire subtilase domain (protein)
chain: MGIRCSTWLRWPLSPQLLLLLLLCPTGSRAQDEDGDYEELMLALPSQEDSLVDEASHVATATFRRCSKEAWRLPGTYVVVLMEETQRLQVEQTAHRLQTWAARRGYVIKVLHVFYDLFPGFLVKMSSDLLGLALKLPHVEYIEEDSAWFPEDQRVLTPNRVATLPPSTQETGGQLLCRTVWSAHSGPTRTATATARCAPEEELLSCSSFSRSGRRRGDRIEAIGGQQVCKALNAFGGEGVYAVARCCLLPRVNCSIHNTPAARAGPQTPVHCHQKDHVLTGCSFHWEVENLRAQQQPLLRSRHQPGQCVGHQEASVHASCCHAPGLECKIKEHGIAGPAEQVTVACEAGWTLTGCNVLPGASLPLGAYSVDNVCVARIRDAGRADRTSEEATVAAAICCRSRPSAKASWVHQ
modifications: mutant of rat sequence deletion mutant removes amino acids Leu147-Met425, inclusive, of SEQ ID NO9
notes: NARC1 subtilase deletion, large; removes entire subtilase domain
B6: Deletion of residues Q218-A392, inclusive: NARC1 subtilase deletion, small; removes much of the subtilase domain including active site residues (protein)
chain: MGIRCSTWLRWPLSPQLLLLLLLCPTGSRAQDEDGDYEELMLALPSQEDSLVDEASHVATATFRRCSKEAWRLPGTYVVVLMEETQRLQVEQTAHRLQTWAARRGYVIKVLHVFYDLFPGFLVKMSSDLLGLALKLPHVEYIEEDSLVFAQSIPWNLERIIPAWQQTEEDSSPDGSSQVEVYLLDTSIQSGHREIEGRVTITDFNSVPEEDGTRFHRGIVAMMLNRDPALTLAELRQRLILFSTKDVINMAWFPEDQRVLTPNRVATLPPSTQETGGQLLCRTVWSAHSGPTRTATATARCAPEEELLSCSSFSRSGRRRGDRIEAIGGQQVCKALNAFGGEGVYAVARCCLLPRVNCSIHNTPAARAGPQTPVHCHQKDHVLTGCSFHWEVENLRAQQQPLLRSRHQPGQCVGHQEASVHASCCHAPGLECKIKEHGIAGPAEQVTVACEAGWTLTGCNVLPGASLPLGAYSVDNVCVARIRDAGRADRTSEEATVAAAICCRSRPSAKASWVHQ
modifications: mutant of rat sequence deletion mutant removes Gln218-Ala392, inclusive, of SEQ ID NO9

Assays:
[1] = system: NARC1; experiment: Autoprocessing of NARC1 transiently expressed in COS-7 cells, Western blotting; format: cell-based, rat; conditions: C-terminal myc/His fusion transiently expressed in COS-7 cells, 60 kD processing product on Western blot
Procedure: The wild-type NARC1-myc/His clone was transiently expressed in COS-7 cells. The cells were then harvested, lysed, and the protein extracted. Polyacrylamide gel electrophoresis was then carried out on the protein extracts, followed by Western blotting. The resulting membranes were probed using both anti-myc- and NARC1-specific antibodies. Routine techniques and protocols were followed. See, e.g., Ausubel et al.(1998), supra.
This cleavage event maps to approximately the junction between the pro-domain and the enzymatic domain.
Autoprocessing of NARC1 was investigated as follows. COS-7 cells were co-transfected with the following EGFP and myc plasmids: (A) wild-type NARC1-myc and wild-type NARC1-EGFP; (B) S385A NARC1-myc and S385A NARC1-EGFP; and (C) wild-type NARC1-myc and S385A NARC1-myc. The cells were then harvested, lysed, and the protein extracted. Polyacrylamide gel electrophoresis was then carried out on the protein extracts, followed by Western blotting. The resulting membranes were sequentially probed using first the anti-myc and then the anti-EGFP monoclonal antibodies (Abs). Thus, the experiment allowed sequential detection of the separate NARC1 products encoded from the two co-transfected plasmids.
As indicated above, a series of C-terminal truncation mutants were generated. The truncation NARC1-myc/His clones were transiently expressed in COS-7 cells. The cells were then harvested, lysed, the protein extracted, and polyacrylamide gel electrophoresis carried out on the protein extracts. Western analysis was then carried out using both anti-myc and NARC1-specific antibodies.

[2] = system: cerebellar granule neurons (CGNs); experiment: Apoptosis after transient expression of NARC1-EGFP constructs in CGNs, Laser-Scanning Cytometry; format: cell-based, rat; conditions: for Resulting Cell Death Activity: EGFP construct transiently expressed in CGNs, percentage of GFP-positive cells undergoing apoptosis; for BAF sensitivity of induced cell death: CGNs, 100 μM BAF
Excerpt: Cerebellar granule neurons (CGNs) were transfected with a NARC1-enhanced green fluorescent protein (EGFP) expression construct (with the EGFP sequences located at the carboxy terminus of the fusion protein). Unless otherwise indicated, the construct utilized in the following experiments contained 2073 base pairs of the rat NARC1 transcript set forth in FIG. 5. Specifically, this corresponds to nucleotides 205-2277 and amino acid residues 56-746 of SEQ ID NO:4 and SEQ ID NO:3, respectively. The polypeptide sequence encoded by the NARC1 insert utilized herein has been set forth as SEQ ID NO:9 herein. The nucleotide sequence of this insert has been set forth as SEQ ID NO:10.
To investigate NARC1-mediated neuronal cell death, transient expression of the EGFP clones was carried out in cerebellar granule neurons (CGNs). These studies are set forth in detail as follows.

Molecule	Autoprocessing Activity [1]	Resulting Cell Death Activity [2]	Autoprocessing Activity ([1]; listed as V507 C-terminal truncation mutant)	Autoprocessing Activity ([1]; listed as V507 truncation)	BAF sensitivity of induced cell death [2]
B1	reduces autoprocessing; also recorded: Reduced processing	essentially a wild-type phenotype; also recorded: no effect on the cell death phenotype	–	–	–
B2	Marked increase in	Induces wild type	markedly increased level of autoprocessing	increased rate of processing	insensitive.
B3	Normal processing.	Induces wild type	–	–	insensitive.
B4	Normal processing.	Induces wild type	–	–	insensitive.
B5	Absence of processing.	Reduced activity.	–	–	–
B6	Absence of processing.	Reduced activity.	–	–	–
